Experimental data published in US20060052286A1, “Factor VII conjugates for selectively treating neovascularization disorders” (Yale University, priority 2004, published 2006).

Columns and labels:
[1] = tested on: choroidal neovascularization (CNV) lesions; assay: Targeted photodynamic therapy of laser-induced CNV lesions in rats (fluorescein angiography); format: in vivo, Norway-Brown rats
Experimental: CNV lesions were induced by laser photocoagulation of the retina in both eyes of Norway-Brown rats. Group 1: one eye received an intravitreal injection of 10 ul verteporfin conjugated to targeting molecule, and the other eye was used as a control. One hour later some of the lesions were treated with 690 nm laser light, while the other lesions were not irradiated. Group 2: one eye received iv. injection of 0.5 to 1 mg/m^2 verteporfin conjugated with targeting molecule. 15, 30 or 60 minutes later some of the lesions were treated with 690 nm laser light, while the other lesions were not irradiated. The lesions were examined by fluorescein angiography 1, 7 and 14 days later to assess the efficacy of targeted photodynamic therapy. In the case of intravitreal treatment with the same dosage, the effects of targeted photodynamic therapy lasted at least seven days. While there is no effect of PDT in the case of intravitreal injection of free verteporfin, the effects of targeted photodynamic therapy last even longer than 14 days, and the dosage of verteporfin in targeted photodynamic therapy is only 16% as compared to regular PDT verteporfin.
CNV lesions were induced by laser photocoagulation of the retina in both eyes of Norway-Brown rats. Choroidal neovascularization was induced by photocoagulating the posterior pole of rats with argon green laser using a slit lamp and a fundus contact lens to deliver 200-700 mW power for 0.1 second to a 50 μm spot. The power was adjusted to produce a blister or small hemorrhage. If no bleeding was observed, an additional laser-induced lesion was produced next to the first spot. Neovascular membranes usually develop within 2 weeks.
After 4 weeks, FVII-verteporfin conjugate (fVIIPD) at doses of 0.5 or 1 mg/m^2 was injected intravenously into the tail vein of the rats. Some of the CNV lesions were irradiated with 689 nm laser for 83 seconds at 15, 30 or 60 minutes after intravenous injection, while the other lesions were not irradiated (no light controls). Control rats were intravenously injected with Verteporfin (6.0 mg/m2) and laser irradiation was done 15 minutes later. The lesions were examined by fundus photographs and fluorescein angiography 1, 7 and 14 days later to assess the efficacy of ITPT. Choroidal veovascular membranes were treated by intravitreal injection of Verteporfin attached to targeting molecules that bind selectively to the endothelial cells of pathologic vessels. The photosensitizer was activated with an opal laser. A similar experiment was performed by intravitreal injection of fVII-targeted verteporfin.

[2] = target: T1, Tissue Factor on the tumor cells (human breast cancer cells) (Homo sapiens, UniProt P13726); assay: Binding to human breast cancer cells expressing TF by flow cytometry; conditions: conjugated compared with non-conjugated molecule
T1 construct: Human Tumor Cells Expressing TF; endogenous in cells
Experimental: mfVIIP was conjugated to verteporfin using the procedure described above. The binding activity of the conjugate to human breast cancer cells was tested by flow cytometry

T1 sequence (P13726 33-295): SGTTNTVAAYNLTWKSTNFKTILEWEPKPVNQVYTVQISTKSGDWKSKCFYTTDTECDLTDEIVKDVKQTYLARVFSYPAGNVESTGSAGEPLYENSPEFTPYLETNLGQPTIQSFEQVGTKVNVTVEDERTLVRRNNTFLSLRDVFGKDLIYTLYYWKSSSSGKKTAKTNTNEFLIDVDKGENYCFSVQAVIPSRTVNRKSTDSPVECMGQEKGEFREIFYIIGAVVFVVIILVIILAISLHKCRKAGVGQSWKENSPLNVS

| binding activity to human breast cancer cells [2] | Molecule | effect of PDT ([1]; intravitreal injection, same dosage) | blood vessel leakage ([1]; intravitreal injection followed by laser activation, at 7 days) | duration of effects of targeted photodynamic therapy ([1]; intravitreal treatment, 690 nm laser light) | duration of effects of targeted photodynamic therapy ([1]; route not stated in the sentence (apparently iv 0.5 to 1 mg/m^2), verteporfin dosage only 16% of regular PDT) [days] |
| --- | --- | --- | --- | --- | --- |
|  | verteporfin [reference compound] | no effect |  |  |  |
| identical | mfVIIPD: verteporfin conjugated via EDC to mfVIIP protein (mouse factor VII with K341A mutation) (conjugate, UniProt P70375 1-446, looked up, variant K341A, verteporfin conjugate; S-peptide and His6 tags) MVPQAHGLLLLCFLLQLQGPLGTAVFITQEEAHGVLHRQRRANSLLEELWPGSLERECNEEQCSFEEAREIFKSPERTKQFWIVYSDGDQCASNPCQNGGTCQDHLKSYVCFCLLDFEGRNCEKSKNEQLICANENGDCDQYCRDHVGTKRTCSCHEDYTLQPDEVSCKPKVEYPCGRIPVVEKRNSSSRQGRIVGGNVCPKGECPWQAVLKINGLLLCGAVLLDARWIVTAAHCFDNIRYWGNITVVMGEHDFSEKDGDEQVRRVTQVIMPDKYIRGKINHDIALLRLHRPVTFTDYVVPLCLPEKSFSENTLARIRFSRVSGWGQLLDRGATALELMSIEVPRLMTQDCLEHAKHSSNTPKITENMFCAGYMDGTKDACAGDSGGPHATHYHGTWYLTGVVSWGEGCAAIGHIGVYTRVSQYIDWLVRHMDSKLQVGVFRLPLL |  | completely stopped blood vessel leakage | at least seven | > 14 |
| identical | mfVIIP: mouse factor VII with K341A mutation, ribonuclease S-peptide and 6 Histidines, produced in CHO cells (protein, UniProt P70375 1-446, looked up, variant K341A, S-peptide and His6 tags, mouse factor VII with K341A mutation, ribonuclease S-peptide and 6 Histidines, produced in CHO cells) MVPQAHGLLLLCFLLQLQGPLGTAVFITQEEAHGVLHRQRRANSLLEELWPGSLERECNEEQCSFEEAREIFKSPERTKQFWIVYSDGDQCASNPCQNGGTCQDHLKSYVCFCLLDFEGRNCEKSKNEQLICANENGDCDQYCRDHVGTKRTCSCHEDYTLQPDEVSCKPKVEYPCGRIPVVEKRNSSSRQGRIVGGNVCPKGECPWQAVLKINGLLLCGAVLLDARWIVTAAHCFDNIRYWGNITVVMGEHDFSEKDGDEQVRRVTQVIMPDKYIRGKINHDIALLRLHRPVTFTDYVVPLCLPEKSFSENTLARIRFSRVSGWGQLLDRGATALELMSIEVPRLMTQDCLEHAKHSSNTPKITENMFCAGYMDGTKDACAGDSGGPHATHYHGTWYLTGVVSWGEGCAAIGHIGVYTRVSQYIDWLVRHMDSKLQVGVFRLPLL |  |  |  |  |
